Assay results reported in US7550150B2, “Methods of treating or preventing a disease, disorder or condition associated with a viral infection” (Barros Research Institute, priority 2005, dated 2009).
Values joined by “and” are separate entries in the source; they are usually repeats but may differ in a detail not shown here. Equal entries are not always repeated. Where two headings read alike, the source gives them in different places. Marks after values point to notes of the source that are not given here.

Columns and labels:
[1] = system: Banzi virus (H336 strain); test: Banzi virus infection in mice (Example 7); assay type: in vivo, BALB/c mice; details: for Infected, treated MDD ± SD: mice dying before day 21; for weight loss: placebo 9.6%; for Average brain titer: placebo 6.9
[2] = Uninfected toxicity controls (Example 7); assay type: in vivo, BALB/c mice
Protocol: Experiment Design: Animals were injected i.p. with either 10^−3 dilution of Banzi virus stocks diluted in minimal essential media (MEM), or were sham-inoculated. This virus concentration had previously produced approximately 90% mortality in mice. Animals were treated with two doses of 10, 1, 0.1 μg/mouse of Barrogen or with drug vehicle (placebo group). The first dose was administered 4-6 h prior to virus inoculation. The second dose was given 48 h later. As a positive control a group of 15 infected mice were treated with a single dose of Ampligen® 24 h prior to virus inoculation at a dose of 1 mg/kg. Groups of 3 sham-inoculated animals used as toxicity controls were treated with identical compounds on identical schedules to the infected animals.

influenza virus = details: orally; cited from earlier work
[3] = for tolerability in toxicity control animals: all surviving and losing no weight during therapy; for Tox Controls Surv/Total: uninfected, two treatments
[4] = toxicity controls; 75 mg/kg/day i.p. bid x5
[5] = system: Punta Toro virus, Adames strain; set-up: species or system C57BL/6 mice; details: mouse, in vivo
[6] = dosages used; no deaths or weight loss
[7] = every dose used
[8] = system: Banzi virus (H336 strain); assay type: in vivo, Balb/c mice; details: for Infected, treated % survival (alive/total): 21 days; for Infected, treated % Mean wt. change: day 0 vs day 10
[9] = dosages used; no deaths or weight loss; remark: listed apart in the source
[10] = system: Punta Toro virus, Adames strain; set-up: species or system C57BL/6 mice; details: mouse, in vivo; remark: listed apart in the source
[11] = 0.1 μg/mouse/day i.p. 4-6 h pre-virus and 48 hr later
[12] = 1 μg/mouse/day i.p. 4-6 h pre-virus and 48 hr later
[13] = 10 μg/mouse/day i.p. 4-6 h pre-virus and 48 hr later
[14] = 0.1 μg/treatment i.p. −4 hpi and 2 dpi
[15] = 1 μg/treatment i.p. −4 hpi and 2 dpi

For “poly I · poly C12u [Ampligen, reference compound]”, the “Infected, treated Surv/Total” value ([1]; 1 mg/kg i.p. single dose 24 h pre-virus exposure) was 10/10 (100%)***, the survival ([1]; 1 mg/kg single dose 24 h prior, p<0.001) was 100% and the “animals with virus detected in brain” value ([1]; 1 mg/kg, 8 dpi) was 1 of the 5. The brain virus titer ([1]; 1 mg/kg, 8 dpi, placebo 6.9 log10 CCID50/g of tissue) was 5.6, the average weight gain ([1]; 1 mg/kg, by 8 dpi) was 1.9% and the “Uninfected toxicity control Surv/Total” value ([2]; 1 mg/kg i.p. single dose) was 3/3 (100%).

For `CCOC(=O)C1=C[C@@H](OC(CC)CC)[C@H](NC(C)=O)[C@@H](N)C1` [Oseltamivir], the “doses down to which highly active against influenza virus infections in mice” value (influenza virus) is given as ~1 mg/kg/day.

For “GM-CSF: Granulocyte macrophage - colony stimulating factor”, the “tolerability in toxicity control animals” value [3] was “well tolerated”, the “Tox Controls Surv/Total” value ([3]; 20 ng i.p.) was 3/3 and the “Tox Controls Surv/Total” value ([3]; 200 ng i.p.) was 3/3.

With `NC(=O)c1ncn([C@@H]2O[C@H](CO)[C@@H](O)[C@H]2O)n1` [Ribavirin, reference compound] the “weight loss during the treatment period” value [4] was 0.8 g and the Liver virus [5] was “not detectable”.

B1: rBBX-01: Recombinant Apicomplexa-related protein (ARP) having the sequence of SEQ ID NO:20; termed Barrogen, also called rBBX-01 or E1 (protein, listed as Eimeria tenella)
chain: GEEADTQAWDTSVREWLVDTGRVFAGGVASIADGCRLFGAAVEGEGNAWEELVKTNYQIEVPQEDGTSISVDCDEAETLRQAVVDGRAPNGVYIGGTKYKLAEVKRDFTFNDQNYDVAILGKNKGGGFLIKTPNENVVIALYDEEKEQNKADALTTALNFAEYLYQGGF
With B1 the “tolerability in toxicity controls” value [6] was “well tolerated”, the “tolerability in toxicity control animals” value [3] was “well tolerated” and the “tolerability in toxicity control mice” value [7] was “well tolerated”. For the same molecule, the “Infected, treated Surv/Total” value [1, 11] was 5/10 (50%)*, the “Infected, treated MDD ± SD” value [1, 11] was 8.4 ± 5.5 and the “virus in the brains” value ([1]; 0.1 μg/mouse, 8 dpi) was “No virus was detected”. For the same molecule, the weight loss ([1]; 0.1 μg/mouse, 8 dpi) was 0.2%, the survival ([1]; 0.1 μg/mouse, placebo 10%, p<0.05) was 50% and the “Infected, treated Surv/Total” value [1, 12] was 7/10 (70%)***. For the same molecule, the “Infected, treated MDD ± SD” value [1, 12] was 14.3 ± 1.5, the “animals with virus detected in brain” value ([1]; 1 μg/mouse, 8 dpi) was 2 out of 5 and the Average brain titer ([1]; 1 μg/mouse, 8 dpi) was 4.6 log10 CCID50. For the same molecule, the weight loss ([1]; 1 μg/mouse, 8 dpi) was 0.5%, the survival ([1]; 1 μg/mouse, placebo 10%, p<0.001) was 70% and the “Infected, treated Surv/Total” value [1, 13] was 4/10 (40%). For the same molecule, the “Infected, treated MDD ± SD” value [1, 13] was 14.2 ± 3.5, the “animals with virus detected in brain” value ([1]; 10 μg/mouse, 8 dpi) was 2 out of 5 and the Average brain titer ([1]; 10 μg/mouse, 8 dpi) was 2.8 log10 CCID50. The weight loss ([1]; 10 μg/mouse, 8 dpi) was 1.3%, the survival ([1]; 10 μg/mouse, not significantly higher than placebo) was 40% and the “mice protected (survival)” value [5] was 100%. For the same molecule, the “reduction of serum viral load” value [5] was “more than 2 logs”, the “serum ALT” value [5] was “markedly reduced” and the “Infected, treated % survival (alive/total)” value [8, 14] was 47% (7/15)**. For the same molecule, the “Infected, treated % Mean wt. change” value [8, 14] was -1.4 g, the “Infected, treated % survival (alive/total)” value [8, 15] was 47% (7/15)** and the “Infected, treated % Mean wt. change” value [8, 15] was -1.0 g. For the same molecule, the mean-day-to-death ([8]; Barrogen-treated vs placebo-treated mice (FIG. 30)) was “significant increase”, the “tolerability in toxicity controls” value [9] was “well tolerated” and the “Uninfected toxicity control Surv/Total” value ([2]; 0.1 μg/mouse/day i.p., two doses 48 h apart) was 3/3 (100%). The “Uninfected toxicity control Surv/Total” value ([2]; 1 μg/mouse/day i.p., two doses 48 h apart) was 3/3 (100%), the “Uninfected toxicity control Surv/Total” value ([2]; 10 μg/mouse/day i.p., two doses 48 h apart) was 3/3 (100%) and the Hepatic icterus reduced [10] was 17-43%. The “mice protected / cured” value [10] was 100%, the “serum ALT” value [10] was “markedly reduced” and the serum virus titers [10] was “significantly reduced”. The “Mean Liver Score ± SD” value ([10]; ip) was 2.6 ± 0.2 and 2.7 ± 0.3 and 2.0 ± 0.6 and 2.9 ± 0.5.
